Patent US11912970B2, “Universal microfluidic culture system to analyze and control cell dynamics” (The University of Chicago, priority 2017, dated 2024)

Tests used:
Format in all cases: cell-based, mouse
mice HSCs = assay: M-CSF induced differentiation of mice HSCs on chip; settings: media replacement through the buffering layer
Source text: FIG. 11B(I) depicts the culture of mice HSCs cells in suspension mode, and (II) depicts the differentiation of mice HSCs cells by introducing M-CSF differentiation media.
Murine hematopoietic stem cells (HSC) are isolated by FACSAria III flow cytometer (BD Biosciences) as Lin−/c-Kit+/Sca-1+/CD48−/CD150+/CD34− (lineage, Lin: CD3e/CD11b/CD19/CD41/B220/Gr-1/Ter-119), which are approximately 50% pure HSCs. Macrophage colony-stimulating factor (M-CSF), a myeloid cytokine released during infection and inflammation, is employed to induce HSCs differentiation. Human CD34+ cells were isolated from mononuclear cells using EasySepTM human CD34 positive selection kit (Stemcell Technologies, Vancouver, BC, Canada). CD34+CD38−CD45RA−CD90+CD49f+ HSCs were sorted using a FACSAria III flow cytometer (BD Biosciences). Pro- and anti-inflammatory cytokines including TNF, IFN[…], IL-6, IP10 and MCP-1 are introduced into the cellular environment as single ligand and in combination. Embryonic NSCs with Hes-GFP and Dcx-RFP reporters were isolated at embryonic day 13.5 from a transgenic mice carrying Hes-GFP and Dcx-RFP using standard protocol (Woo, et al., 2009; Basak, et al., 2007). The resulting primary cells were verified to carry both Hes5-GFP and Dcx-RFP after isolation and allowed to grow for few passages before use in the experiments (Giachino, et al., 2009). […]

[1] = tested on: Hes5-GFP expression in NSCs; assay: NSCs Hes5-GFP expression under sequential ligand inputs (permutation test and decision tree analysis); settings: sequential input
Source text: (§1) Murine hematopoietic stem cells (HSC) are isolated by FACSAria III flow cytometer (BD Biosciences) as Lin−/c-Kit+/Sca-1+/CD48−/CD150+/CD34− (lineage, Lin: CD3e/CD11b/CD19/CD41/B220/Gr-1/Ter-119), which are approximately 50% pure HSCs. Macrophage colony-stimulating factor (M-CSF), a myeloid cytokine released during infection and inflammation, is employed to induce HSCs differentiation. Human CD34+ cells were isolated from mononuclear cells using EasySepTM human CD34 positive selection kit (Stemcell Technologies, Vancouver, BC, Canada). CD34+CD38−CD45RA−CD90+CD49f+ HSCs were sorted using a FACSAria III flow cytometer (BD Biosciences). […]
(§2) For image acquisition, a Nikon Ti-ECLIPSE microscope with an automated translation stage and a digital CMOS camera (ORCA-Flash 4.0, Hamamatsu, Japan) was used. […] Bright field and fluorescence images were acquired and analyzed using a customized MATLAB program (Mathworks, […]). The algorithm extracts single cell traces including position, nuclear and cytoplasm fluorescence level. For example, the 3T3 cell nuclear area in each image is identified via the fluorescent nuclear marker GFP, and then the mean value of the nuclear intensity of the p65-DsRed marker is measured, and plotted as a function of time. […]

NSCs [2] = assay: NSCs proliferation (cell number) under sequential ligand inputs (permutation test and decision tree analysis); settings: sequential input, ligand added at day 1
Source text: as §1, §2

NSCs [3] = assay: NSCs proliferation (cell number) under combinatorial ligand inputs (permutation test and decision tree analysis); settings: combinatorial input, decision tree, without PACAP
Source text: as §1, §2

B1: M-CSF: myeloid cytokine released during infection and inflammation, employed to induce HSCs differentiation (protein, UniProt P09603 33-554, looked up)
Macrophage colony-stimulating …: EEVSEYCSHMIGSGHLQSLQRLIDSQMETSCQITFEFVDQEQLKDPVCYLKKAFLLVQDIMEDTMRFRDNTPNAIAIVQLQELSLRLKSCFTKDYEEHDKACVRTFYETPLQLLEKVKNVFNETKNLLDKDWNIFSKNCNNSFAECSSQDVVTKPDCNCLYPKAIPSSDPASVSPHQPLAPSMAPVAGLTWEDSEGTEGSSLLPGEQPLHTVDPGSAKQRPPRSTCQSFEPPETPVVKDSTIGGSPQPRPSVGAFNPGMEDILDSAMGTNWVPEEASGEASEIPVPQGTELSPSRPGGGSMQTEPARPSNFLSASSPLPASAKGQQPADVTGTALPRVGPVRPTGQDWNHTPQKTDHPSALLRDPPEPGSPRISSLRPQGLSNPSTLSAQPQLSRSHSSGSVLPLGELEGRRSTRDRRSPAEPEGGPASEGAARPLPRFNSVPLTDTGHERQSEGSFSPQLQESVFHLLVPSVILVLLAVGGLLFYRWRRRSHQEPQRADSPLEQPEGSPLTQDDRQVELPV
- response of HSCs to ligand input (mice HSCs): instantaneous response

B2: Jagged: signaling ligand whose receptor is highly expressed during mouse forebrain development (protein, UniProt Q9QXX0 34-1218, looked up)
Protein jagged-1: QFELEILSMQNVNGELQNGNCCGGVRNPGDRKCTRDECDTYFKVCLKEYQSRVTAGGPCSFGSGSTPVIGGNTFNLKASRGNDRNRIVLPFSFAWPRSYTLLVEAWDSSNDTIQPDSIIEKASHSGMINPSRQWQTLKQNTGIAHFEYQIRVTCDDHYYGFGCNKFCRPRDDFFGHYACDQNGNKTCMEGWMGPDCNKAICRQGCSPKHGSCKLPGDCRCQYGWQGLYCDKCIPHPGCVHGTCNEPWQCLCETNWGGQLCDKDLNYCGTHQPCLNRGTCSNTGPDKYQCSCPEGYSGPNCEIAEHACLSDPCHNRGSCKETSSGFECECSPGWTGPTCSTNIDDCSPNNCSHGGTCQDLVNGFKCVCPPQWTGKTCQLDANECEAKPCVNARSCKNLIASYYCDCLPGWMGQNCDININDCLGQCQNDASCRDLVNGYRCICPPGYAGDHCERDIDECASNPCLNGGHCQNEINRFQCLCPTGFSGNLCQLDIDYCEPNPCQNGAQCYNRASDYFCKCPEDYEGKNCSHLKDHCRTTTCEVIDSCTVAMASNDTPEGVRYISSNVCGPHGKCKSQSGGKFTCDCNKGFTGTYCHENINDCESNPCKNGGTCIDGVNSYKCICSDGWEGAHCENNINDCSQNPCHYGGTCRDLVNDFYCDCKNGWKGKTCHSRDSQCDEATCNNGGTCYDEVDTFKCMCPGGWEGTTCNIARNSSCLPNPCHNGGTCVVNGDSFTCVCKEGWEGPICTQNTNDCSPHPCYNSGTCVDGDNWYRCECAPGFAGPDCRININECQSSPCAFGATCVDEINGYQCICPPGHSGAKCHEVSGRSCITMGRVILDGAKWDDDCNTCQCLNGRVACSKVWCGPRPCRLHKSHNECPSGQSCIPVLDDQCFVRPCTGVGECRSSSLQPVKTKCTSDSYYQDNCANITFTFNKEMMSPGLTTEHICSELRNLNILKNVSAEYSIYIACEPSLSANNEIHVAISAEDIRDDGNPVKEITDKIIDLVSKRDGNSSLIAAVAEVRVQRRPLKNRTDFLVPLLSSVLTVAWVCCLVTAFYWCVRKRRKPSSHTHSAPEDNTTNNVREQLNQIKNPIEKHGANTVPIKDYENKNSKMSKIRTHNSEVEEDDMDKHQQKVRFAKQPVYTLVDREEKAPSGTPTKHPNWTNKQDNRDLESAQSLNRMEYIV
- effect on Hes5 expression ([1]; DLL added before Jagged in the first 3 days): enhance Hes5 expression
- Hes5 expression relative to control ([1]; ligand added at day 1): 94.5 % of the control
- cell number relative to control (NSCs [2]): 111.0 % of the control
- cell number, mean ratio relative to control (NSCs [3]; Jagged present): 1.14
- cell number, mean ratio relative to control (NSCs [3]; Jagged with DLL also added): 1.08
